We go through one substance from patent US20110195069A1.

A word on the EC50 (read off the curve): it is the midpoint of the concentration-response curve.

Where only a bound is given, the exact number is not on record here.

For assay [1], the target named is factor D/Pighu (pig-human factor D hybrid) (pig; human) (UniProt P00746). Put plainly: ELISA: wells coated with recombinant factor D protein at 0.5 µg/ml, serially diluted MAb 166-32, HRP goat anti-mouse IgG (Fc), OD450. For orientation: ELISA stands for enzyme-linked immunosorbent assay.
The target of assay [2] is factor D/VDA (human factor D mutant V113E, D116E, A118P) (human) (UniProt P00746). Described as above.
In assay [3] the target is human factor D (purified from human serum, or as present in human serum/plasma) (human) (UniProt P00746). Description: ELISA: wells coated with purified human factor D, serially diluted MAb, HRP goat anti-mouse IgG (Fc), OD450.
Assay [4] has the same target. Put plainly: cell-based or functional assay.
Assay [5] concerns the target dog factor D (in dog serum) (dog). Description: cell-based or functional assay. The settings on record: scale: times less effective than for human factor D.
In assay [6] the target is baboon factor D (in baboon serum) (baboon). Put plainly: cell-based or functional assay.

As for MAb 166-32 (antibody), the concentration giving a half-maximal response (EC50 (read off the curve)) in assay [1] was determined as 0.02 µg/mL. In addition, in assay [2], the EC50 (read off the curve) was 0.02 µg/mL. For the same substance, the half-maximal effective concentration (EC50 (read off the curve)) in assay [3] turned out to be 8 ng/mL. Besides, in assay [4], the alternative pathway hemolytic activity of plasma from extracorporeal circuits of human whole blood (molar ratio MAb : factor D) stood at 1.5, the inhibition of factor D dependent alternative pathway hemolysis of unsensitized rabbit RBCs (factor D depleted human serum supplemented with purified factor D) was determined as 0.3 µg/mL and the molar ratio (MAb 166-32 to factor D) for inhibition of factor D dependent hemolysis (molar ratio MAb 166-32 : factor D) was 0.5. Further, the neutralization of dog factor D in hemolytic assays, compared to human factor D in assay [5] was above 10. Further, in assay [6], the inhibition of alternative complement hemolytic activity (rabbit red blood cells) of plasma samples from baboons given 5 mg/kg Mab 166-32, 18 hours after CPB is 79.3%.
